Data: patent publication US20230265151A1, “GIP/GLP1 CO-AGONIST COMPOUNDS” (priority 2020, published 2023)
Numbering of substitutions follows the chain as printed.

B1: Example 205 (peptide)
peptide: YXEGTXTSDXSIXLDXIAQXKFIXXLIEGGPSSGAPPPSK
modifications: Aib2, αMeF(2F)6, 4Pal10, αMeL13, Orn16, Aib20, K21(Z), D-Glu24, αMeY25, K40(Z), C-terminal NH2; Z = AEEA2-(γ-Glu)-(4-(4-tert-butylphenyl)butanoyl)
B2: Example 254 (peptide)
peptide: B1 peptide
modifications: Aib2, αMeF(2F)6, 2Nal10, αMeL13, Orn16, Aib20, K21(Z), D-Glu24, αMeY25, K40(Z), C-terminal NH2; Z = AEEA2-(γ-Glu)-CO-(CH2)12-CO2H
B3: Example 209 (peptide)
peptide: B1 peptide with I17K, K21E
modifications: Aib2, αMeF(2F)6, 4Pal10, αMeL13, Orn16, K17(Z), Aib20, D-Glu24, αMeY25, K40(Z), C-terminal NH2; Z = AEEA-(γ-Glu)-(4-(4-tert-butylphenyl)butanoyl)
B4: Example 261 (peptide)
peptide: B1 peptide with I17K, K21E
modifications: Aib2, αMeF(2F)6, OMeY10, αMeL13, Orn16, K17(Z), Aib20, D-Glu24, αMeY25, K40(Z), C-terminal NH2; Z = AEEA2-(γ-Glu)-CO-(CH2)12-CO2H
B5: Example 268 (peptide)
peptide: B1 peptide
modifications: Aib2, αMeF(2F)6, OMeY10, αMeL13, Orn16, Aib20, K21(Z), D-Glu24, αMeY25, K40(Z), C-terminal NH2; Z = AEEA2-CO-(CH2)12-CO2H
B6: Example 251 (peptide)
peptide: B1 peptide with I17K, K21E
modifications: Aib2, αMeF(2F)6, 2Nal10, αMeL13, Orn16, K17(Z), Aib20, D-Glu24, αMeY25, K40(Z), C-terminal NH2; Z = AEEA2-(γ-Glu)-CO-(CH2)12-CO2H
B7: Example 258 (peptide)
peptide: B1 peptide
modifications: Aib2, αMeF(2F)6, 2Nal10, αMeL13, Orn16, Aib20, K21(Z), D-Glu24, αMeY25, K40(Z), C-terminal NH2; Z = AEEA2-CO-(CH2)12-CO2H
B8: Example 264 (peptide)
peptide: B1 peptide
modifications: Aib2, αMeF(2F)6, OMeY10, αMeL13, Orn16, Aib20, K21(Z), D-Glu24, αMeY25, K40(Z), C-terminal NH2; Z = AEEA2-(γ-Glu)-CO-(CH2)12-CO2H
B9: Example 257 (peptide)
peptide: B1 peptide with I17K, K21E
modifications: Aib2, αMeF(2F)6, 2Nal10, αMeL13, Orn16, K17(Z), Aib20, D-Glu24, αMeY25, K40(Z), C-terminal NH2; Z = AEEA2-CO-(CH2)12-CO2H
B10: Example 228 (peptide)
peptide: B1 peptide
modifications: Aib2, αMeF(2F)6, 4Pal10, αMeL13, Orn16, Aib20, K21(Z), D-Glu24, αMeY25, K40(Z), C-terminal NH2; Z = AEEA3-(γ-Glu)-CO-(CH2)12-CO2H
B11: Example 225 (peptide)
peptide: B1 peptide with I17K, K21E
modifications: Aib2, αMeF(2F)6, 4Pal10, αMeL13, Orn16, K17(Z), Aib20, D-Glu24, αMeY25, K40(Z), C-terminal NH2; Z = AEEA3-(γ-Glu)-CO-(CH2)12-CO2H
B12: Example 267 (peptide)
peptide: B1 peptide with I17K, K21E
modifications: Aib2, αMeF(2F)6, OMeY10, αMeL13, Orn16, K17(Z), Aib20, D-Glu24, αMeY25, K40(Z), C-terminal NH2; Z = AEEA2-CO-(CH2)12-CO2H
B13: Example 221 (peptide)
peptide: B1 peptide with I17K, K21E
modifications: Aib2, αMeF(2F)6, 4Pal10, αMeL13, Orn16, K17(Z), Aib20, D-Glu24, αMeY25, K40(Z), C-terminal NH2; Z = AEEA2-CO-(CH2)12-CO2H
B14: Example 211 (peptide)
peptide: YXEGTXTSDXXIXLDXKAQXEFIXXLIEGGKSSGAPPPS
modifications: Aib2, αMeF(2F)6, 4Pal10, Ac5c11, αMeL13, Orn16, K17(Z), Aib20, D-Glu24, αMeY25, K31(Z), C-terminal NH2; Z = AEEA2-(γ-Glu)-CO-(CH2)12-CO2H
B15: Example 214 (peptide)
peptide: B14 peptide with X24K, K31P
modifications: Aib2, αMeF(2F)6, 4Pal10, αMeS11, αMeL13, Orn16, K17(Z), Aib20, K24(Z), αMeY25, C-terminal NH2; Z = AEEA2-(γ-Glu)-CO-(CH2)12-CO2H
B16: Example 213 (peptide)
peptide: B14 peptide
modifications: Aib2, αMeF(2F)6, 4Pal10, αMeS11, αMeL13, Orn16, K17(Z), Aib20, D-Glu24, αMeY25, K31(Z), C-terminal NH2; Z = AEEA2-(γ-Glu)-CO-(CH2)12-CO2H
B17: Example 204 (peptide)
peptide: YXEGTXTSDXSIXLDXIAQXKFIXXLIKGGPSSGAPPPS
modifications: Aib2, αMeF(2F)6, 4Pal10, αMeL13, Orn16, Aib20, K21(Z), D-Glu24, αMeY25, K28(Z), C-terminal NH2; Z = AEEA2-(γ-Glu)-(4-(4-tert-butylphenyl)butanoyl)
B18: Example 265 (peptide)
peptide: B17 peptide with I17K, K28E
modifications: Aib2, αMeF(2F)6, OMeY10, αMeL13, Orn16, K17(Z), Aib20, K21(Z), D-Glu24, αMeY25, C-terminal NH2; Z = AEEA2-CO-(CH2)12-CO2H

These binders were tested against T1, human glucose-dependent insulinotropic polypeptide (GIP) receptor (human, UniProt P48546 22-466) (assay: cell-based or functional assay).
T1 sequence (looked up): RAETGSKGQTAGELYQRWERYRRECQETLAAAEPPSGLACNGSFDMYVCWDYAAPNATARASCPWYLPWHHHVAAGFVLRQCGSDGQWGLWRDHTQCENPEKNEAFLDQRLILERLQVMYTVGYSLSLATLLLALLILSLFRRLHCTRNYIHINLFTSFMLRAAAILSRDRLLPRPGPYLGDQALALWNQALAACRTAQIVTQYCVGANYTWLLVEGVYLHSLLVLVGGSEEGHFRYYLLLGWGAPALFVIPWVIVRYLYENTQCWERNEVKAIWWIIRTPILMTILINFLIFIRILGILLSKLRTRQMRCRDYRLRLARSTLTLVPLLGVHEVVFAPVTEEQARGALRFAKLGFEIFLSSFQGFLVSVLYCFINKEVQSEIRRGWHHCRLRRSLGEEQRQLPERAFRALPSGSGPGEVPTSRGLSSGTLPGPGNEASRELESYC

| Binder | cAMP EC50 [nM] | cAMP Emax [%] |
| --- | --- | --- |
| B1 | 0.0264 |  |
| B2 | 0.0273 |  |
| B3 | 0.0133 |  |
| B4 | 0.025 |  |
| B5 | 0.0265 |  |
| B6 | 0.0305 |  |
| B7 | 0.0473 | 90.3 |
| B8 | 0.0208 | 114 |
| B9 | 0.148 |  |
| B10 | 0.0232 |  |
| B11 | 0.0466 |  |
| B12 | 0.0162 |  |
| B13 | 0.0279 |  |
| B14 | 0.0465 | 91.6 |
| B15 | 0.0351 | 93.7 |
| B16 | 0.0275 | 92 |
| B17 | 0.0304 |  |
| B18 | 0.0145 |  |

These binders were tested against human glucagon-like peptide-1 (GLP-1) receptor (human, UniProt P43220 24-463) (assay: cell-based or functional assay).

| Binder | cAMP EC50 [nM] | cAMP Emax [%] |
| --- | --- | --- |
| B1 | 0.287 |  |
| B2 | 0.507 |  |
| B3 | 0.235 |  |
| B4 | 0.531 |  |
| B5 | 0.613 |  |
| B6 | 0.338 |  |
| B7 | 0.653 |  |
| B8 | 0.413 |  |
| B9 | 2.03 | 82 |
| B10 | 1.34 | 91.1 |
| B11 | 9.62 |  |
| B12 | 0.271 |  |
| B13 | 1.83 | 83 |
| B14 | 3.55 | 93.1 |
| B15 | 0.618 | 93.2 |
| B16 | 2.14 | 94.8 |
| B17 | 0.47 | 126 |
| B18 | 0.262 |  |

The binders below were run against human glucagon receptor (human, UniProt P47871 26-477) (assay: cell-based or functional assay).

| Binder | cAMP EC50 [nM] |
| --- | --- |
| B1 | > 9950 |
| B2 | > 9950 |
| B3 | > 9950 |
| B4 | > 9950 |
| B5 | > 9950 |
| B6 | > 9950 |
| B7 | > 9950 |
| B8 | > 9950 |
| B9 | > 9950 |
| B10 | > 9950 |
| B11 | > 9950 |
| B12 | > 9950 |
| B13 | > 9950 |
| B14 | > 9950 |
| B15 | > 9950 |
| B16 | > 9950 |
| B17 | > 9950 |
| B18 | > 9950 |
